Biological target: T1, ヒトCD38 (SPRで注入されたCD38) (human, UniProt P28907 43-300)
T1 sequence: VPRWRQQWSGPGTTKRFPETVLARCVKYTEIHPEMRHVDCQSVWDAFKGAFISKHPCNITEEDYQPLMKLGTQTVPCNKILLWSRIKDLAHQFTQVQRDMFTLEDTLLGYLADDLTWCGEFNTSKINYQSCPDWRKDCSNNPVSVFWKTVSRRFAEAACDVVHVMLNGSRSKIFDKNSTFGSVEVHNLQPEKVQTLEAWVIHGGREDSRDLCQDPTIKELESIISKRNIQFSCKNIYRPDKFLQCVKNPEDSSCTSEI
Assay: SPR (Biacore), antibody captured on protein A, CD38 injected

- Kd: 0.378 to 27 nM
B1: X02.1 (antibody, human IgG4 S228P, lambda, V domains shown)
VH: QLQLQESGPGLVKPSETLSLTCTVSGGSISSSSYYWSWIRQHPGKGLEWIGYIYYSGSTNYNPSLKSRVTISVDTLKNQISLRLTSVTAADTAVYYCARVGGAGGWPMDVWGQGTTVTVSS
VL: QAVLTQPASLSASPGESARLTCTLPSDINVRYYNIYWYQQKPGSPPRYLLYYYSDSHKGQGSGVPSRFSGSKDVSTNSGILLISGLQSEDEADYYCMTWSSNGSGVFGGGTQLTVLG
notes: X02.1 has no IFN fusion; also called 親抗体X02.1; A02.1 (X355/02-HC-L0-IFN-アルファ(A145D)IgG4) の非融合抗体

— patent publication JP2018087218A (dated 2018)
